In patent publication US20250277025A1 (SHIJIAZHUANG YILING PHARMACEUTICAL, published 2025):
Where a chain is given by its changes, count along the chain named.

Tests used:
[1] = molecular target: human CLDN18.2 expressed on cells (human); test: cell-based or functional assay
[2] = molecular target: T1, human CLDN18.2 expressed on cells (human); test: flow cytometry on CHO cells expressing huCLDN18.2, GAH-FITC secondary, percent FITC-positive cells
T1 construct: also called huCLDN18.2
Experimental: CHO cells expressing huCLDN18.2 were used to assess the binding of the antibodies. Cells were seeded at 5×10⁵ cells per 100 μl into a well of a 96-well plate for each sample. Then, 100 μl of each serially diluted antibody was added to the cells, each dilution started at 40 μg/ml and was diluted 5-fold. Therefore, the final concentration of each antibody starts at 20 μg/ml followed by a 5-fold serial dilution. After 1 hour, the cells were washed twice and 100 μl of GAH-FITC (1:200 dilution) was added to each well. After 30 minutes, the cells were washed twice and resuspended in 120 μl of FACS buffer. The cells were analyzed via flow cytometry.
Unstained cells were used as a reference to set up overall target cell gating and to establish the FITC-negative populations, allowing us to establish the FITC-positive cell gate for each cell line. Additionally, the mean fluorescence intensity (MFI) of the entire population of cells was calculated to secondarily validate the FITC-positive results. The ratio of the gated positive cell number to the total live cell number is taken as the percentage of positive cells.

[3] = molecular target: T1, human CLDN18.2 expressed on cells; test: cell-based or functional assay; remark: listed apart in the source
[4] = molecular target: T1, human CLDN18.2 expressed on cells; test: cell-based or functional assay; remark: listed apart in the source
[5] = molecular target: T1, human CLDN18.2 expressed on cells; test: flow cytometry (geometric mean, Alexa Fluor 647 anti-human IgG Fc) on CLDN18.2-expressing 293T cells
[6] = molecular target: T1, human CLDN18.2 expressed on cells; test: cell-based or functional assay; remark: listed apart in the source

B1: YL-G1-19-02 (antibody, human IgG1, kappa)
heavy: not shown
light: DIVMTQSPSSLTVTAGEKVTMSCKSSQSLLNSGNQKNYLTWYQQRPGQPPKLLIYWASTRESGVPVRFTGSGSGTDFTLTISSVQAEDLAVYYCQNAYIYPLTFGTGTKLELKRTVAAPSVFIFPPSDEQLKSGTASVVCLLNNFYPREAKVQWKVDNALQSGNSQESVTEQDSKDSTYSLSSTLTLSKADYEKHKVYACEVTHQGLSSPVTKSFNRGEC
Question: Which “ADCC (PBMC) on KATOIII CLDN18.2 cells, LDH: max (% cytotoxity)” value [1] does the source give for B1 here?
Answer: 19.9%

B2: YL-G2-D (antibody, human IgG1, kappa)
heavy: QLQQSGPELEKPGASVKISCKASGYSFTGYKMNWVKQSNGESLEWIGNIDPYYGDTTYTQKFKGKATFTVDTSSSTAYMQLKSLTSEDSAVYFCARYNRGNTMDYWGQGTSVTVSSASTKGPSVFPLAPSSKSTSGGTAALGCLVKDYFPEPVTVSWNSGALTSGVHTFPAVLQSSGLYSLSSVVTVPSSSLGTQTYICNVNHKPSNTKVDKRVEPKSCDKTHTCPPCPAPELVGGPSVFLLPPKPKDTLMISRTPEVTCVVVDVSHEDPEVKFNWYVDGVEVHNAKTKPPEEQYNSTLRVVSVLTVLHQDWLNGKEYKCKVSNKALPAPIEKTISKAKGQPREPQVYTLPPSREEMTKNQVSLTCLVKGFYPSDIAVEWESNGQPENNYKTTPLVLDSDGSFFLYSKLTVDKSRWQQGNVFSCSVMHEALHNHYTQKSLSLSPGK
light: B1 light with M21L, T75A, Y93F, I99F, K113R
notes: Fc-engineered version of YL-G1-19-04 without the first two VH residues; also called Fc-engineered chimeric antibody
Question: For B2, which “EC50 (read off the curve)” value [2] is on record?
Answer: ~0.3 ng/mL

B3: YL-G2-C (antibody, human IgG1, kappa)
heavy: QIQLVQSGPELRKPGETVKISCKASGFPFTTDGMSWVKQAPGKGLKWMGWINTYSGVPTYADDFKGRVAFSLETSASTAYLQIKNLKNEDTATYFCARFRRGNALDNWGQGTSVTVSSASTKGPSVFPLAPSSKSTSGGTAALGCLVKDYFPEPVTVSWNSGALTSGVHTFPAVLQSSGLYSLSSVVTVPSSSLGTQTYICNVNHKPSNTKVDKRVEPKSCDKTHTCPPCPAPELVGGPSVFLLPPKPKDTLMISRTPEVTCVVVDVSHEDPEVKFNWYVDGVEVHNAKTKPPEEQYNSTLRVVSVLTVLHQDWLNGKEYKCKVSNKALPAPIEKTISKAKGQPREPQVYTLPPSREEMTKNQVSLTCLVKGFYPSDIAVEWESNGQPENNYKTTPLVLDSDGSFFLYSKLTVDKSRWQQGNVFSCSVMHEALHNHYTQKSLSLSPGK
light: B1 light with R45K, V66D, V91I, A97N, I99F, T106A, K109R
notes: Fc-engineered version of YL-G1-19-03; also called Fc-engineered chimeric antibody
Question: Which “EC50 (read off the curve)” value [2] does the source give for B3 here?
Answer: ~0.6 ng/mL

B4: YL-G2-B (antibody, human IgG1, kappa)
heavy: EVQLQQSGPELEKPGASVKISCKASGYSFTGYKMNWVKQSNGKSLEWIGNIDPYYGGTTYNQKFKGKATLTVDKSSSTAYMQLKSLTSEDSAVYYCARYGKGNTMDYWGQGTSVTVSSASTKGPSVFPLAPSSKSTSGGTAALGCLVKDYFPEPVTVSWNSGALTSGVHTFPAVLQSSGLYSLSSVVTVPSSSLGTQTYICNVNHKPSNTKVDKRVEPKSCDKTHTCPPCPAPELVGGPSVFLLPPKPKDTLMISRTPEVTCVVVDVSHEDPEVKFNWYVDGVEVHNAKTKPPEEQYNSTLRVVSVLTVLHQDWLNGKEYKCKVSNKALPAPIEKTISKAKGQPREPQVYTLPPSREEMTKNQVSLTCLVKGFYPSDIAVEWESNGQPENNYKTTPLVLDSDGSFFLYSKLTVDKSRWQQGNVFSCSVMHEALHNHYTQKSLSLSPGK
light: B1 light
notes: also called YL-G2-B batch 1; YL-G2-B batch 2
Question: With B4 as the binder, how does the “EC50 (read off the curve)” value [2] read?
Answer: ~0.6 ng/mL

B5: IMAB362 (Ganymed) (antibody, V domains shown)
VH: QVQLQQPGAELVRPGASVKLSCKASGYTFTSYWINWVKQRPGQGLEWIGNIYPSDSYTNYNQKFKDKATLTVDKSSSTAYMQLSSPTSEDSAVYYCTRSWRGNSFDYWGQGTTLTVSS
VL: DIVMTQSPSSLTVTAGEKVTMSCKSSQSLLNSGNQKNYLTWYQQKPGQPPKLLIYWASTRESGVPDRFTGSGSGTDFTLTISSVQAEDLAVYYCQNDYSYPFTFGSGTKLEIKR
Question: How did the “CDC on KATOIII CLDN18.2 cells, LDH: EC50 (run A)” value [3] turn out when B5 was run?
Answer: ~38.1 nM

Question: What about the “CDC on KATOIII CLDN18.2 cells, LDH: EC50 (run B)” value [3] of the same binder?
Answer: ~22.7 nM

Question: What about the “CDC on KATOIII CLDN18.2 cells, LDH: EC50 (run C)” value [3] of the same binder?
Answer: ~27.5 nM

Question: What about the “ADCC (PBMC) on NCI-N87 CLDN18.2 cells, LDH: EC50 (run A)” value [4] of the same binder?
Answer: 0.057 nM

Question: And the “ADCC (PBMC) on NCI-N87 CLDN18.2 cells, LDH: EC50 (run B)” value [4]?
Answer: 0.082 nM

Question: And the “ADCC (PBMC) on NCI-N87 CLDN18.2 cells, LDH: EC50 (run C)” value [4]?
Answer: 0.1 nM

Question: What about the “ADCC (PBMC) on KATOIII CLDN18.2 cells, LDH: EC50 (run A)” value [1] of the same binder?
Answer: 0.12 nM

Question: What about the “ADCC (PBMC) on KATOIII CLDN18.2 cells, LDH: EC50 (run B)” value [1] of the same binder?
Answer: 0.22 nM

Question: What about the “ADCC (PBMC) on KATOIII CLDN18.2 cells, LDH: EC50 (run C)” value [1] of the same binder?
Answer: 0.27 nM

Question: And the “EC50 (read off the curve)” value [5]?
Answer: ~800 ng/mL

Question: And the “CDC on CT26 CLDN18.2 cells, LDH: EC50 (run A)” value [6]?
Answer: ~11.5 nM

Question: What about the “CDC on CT26 CLDN18.2 cells, LDH: EC50 (run B)” value [6] of the same binder?
Answer: ~10.7 nM

Question: And the “CDC on CT26 CLDN18.2 cells, LDH: EC50 (run C)” value [6]?
Answer: ~11.9 nM
